Biological target: 10042.05.SOSIP trimer (recombinant HIV-1 Env trimer 10042.05 from subject VC10042, cleaved SOSIP form) (HIV-1)
Assay: SEC + native gel or EMSA; Superdex 200 16/600 pg SEC after lectin and ion exchange steps; fractions and final preparation on blue native PAGE; analytical SEC as QC

“10042.05.SOSIP trimer (recombinant HIV-1 Env trimer 10042.05 from subject VC10042, cleaved SOSIP form) (complex)” was tested. Which stoichiometry N did it give?
The stoichiometry N was 3.

From paper PMC7259690
